Experiment [1] concerns CB megakaryocytes. Kind of experiment: Megakaryocyte polyploidy by propidium iodide staining after ROCK inhibitor treatment. It counts as cell-based, human. Conditions: treatment of mature megakaryocytes over 5 days, vs untreated. The text has this:
FIGS. 3A-3C. Rock inhibitor(Y27632) treatment increases megakaryocyte polyploidy. (FIG. 3A) Schematic representation of the strategy for the rock inhibitor treatment of mature megakaryocytes over 5 days. (FIG. 3B) Histogram plots showing propidium Iodide (PI) staining in fixed and permeabilized untreated or Y27632 treated megakaryocytes. (FIG. 3C) Percentage of polyploid (=>8N) megakaryocytes in untreated or Y27632 treated groups, number above bar indicates p-value.
The inventors characterized the influence of ROCK inhibitors on CB megakaryocyte ploidy changes, platelets secretions, and their functionality.
This indicates enhancement of functional profile of the CB platelets (FIGS. 4D-4E). Several different ROCK inhibitors can be used in this procedure including Y27632, KD025, GSK269962 and Azaindole 1([9-12].

In experiment [2] the test system is CB megakaryocytes. Kind of experiment: Platelet secretion from megakaryocytes cultured in vitro with or without ROCK inhibitor. The settings on record: 48 hrs culture, vs without inhibitor; dose-dependent. The experiment is classed as cell-based, human. An excerpt: (§1) FIGS. 4A-4E. Rock inhibitor treatment enhance platelets secretion and TRAP induced activation. (FIG. 4A) Schematic representation of the strategy for the in-vitro megakaryocytes culture with or without rock inhibitor(Y27632) for 48 hrs. (FIG. 4B) Number of platelets after 48 hrs, number above bar indicates p-value. […] This indicates enhancement of functional profile of the CB platelets (FIGS. 4D-4E). Several different ROCK inhibitors can be used in this procedure including Y27632, KD025, GSK269962 and Azaindole 1([9-12].

The subject of another experiment is CB platelets. Kind of experiment: TRAP-induced platelet activation (CD62P expression). The settings on record: after TRAP stimulation, vs without inhibitor. It counts as cell-based, human.
From the text: as §1

For another experiment, the system named is recipient patients. Conditions: ex vivo treatment of CB CD34+ progenitors with FT-VI plus GDP-fucose; cited from earlier work.
Experiment [3] concerns megakaryocytes (CD41a+CD42b+ cells). Description: Cell surface fucosylation by flow cytometry HECA-452 antibody staining. It counts as cell-based, human. Conditions: FT-VI 0.025 μg/ml plus GDP-fucose, 37° C., 30 min, vs control. The text has this: (§2) FIGS. 7A-7G. FIG. 7A. […] (FIG. 7C) HECA-452 antibody mean fluorescence intensity (MFI) histogram expression in control and fucosylated megakaryocytes (CD41a+CD42b+CD61+ cells). (FIGS. 7D-7E) Schematic representation of CB megakaryocytes injection into NSG mice, BM homing analysis and the percentage of homed megakaryocytes in control and fucosylated megakaryocytes group. (FIGS. 7F-7G) CB megakaryocyte injection strategy into sublethally irradiated(3Gy) NSG mice and day 7 blood circulating CB derived platelets percentages measurement in the control and fucosylated groups.
(§3) To characterize the fucosylation levels at steady state, the inventors performed flow cytometry HECA-452 antibody staining (which recognizes sLex/cutaneous lymphocyte antigen (CLA), the fucosylated selectin ligand) to measure the levels of cell surface fucosylation in the freshly isolated CB derived hematopoietic stem cells(HSCs, lineage-CD34+CD38-CD90+CD45RA− cells), megakaryocytes lineage committed, megakaryocyte erythroid progenitors (MEPs, lineage-CD34+CD38+CD135−CD45RA−), and differentiated megakaryocytes(CD41a+CD42b+ cells). […] The NSG bone marrow homing experiments determine if the CB MK's surface fucosylation modification influences their homing into the irradiated mice marrow niche. Briefly, 5×10^6 fluorescein succinimidyl ester (CFSE) dye labeled, unmanipulated control or in-vitro fucosyltransferase-VI (FT-VI) induced fucosylated, expanded CB megakaryocytes were injected into sub-lethally (3Gy) irradiated NSG mice and bone marrow homing analysis at 20 h posttransplant was performed by flow cytometry. […] Similarly, another megakaryocytes tail vein transplantation (5×10^6/mice) experiment was performed, and initial percentage circulating platelets levels were measured from the control and fucosylated MK recipient groups. […]

Experiment [4] deals with megakaryocyte erythroid progenitors (MEPs). The experiment is described as above. The experiment is classed as cell-based, human. The settings on record: FT-VI 0.025 μg/ml plus GDP-fucose, 37° C., 30 min, vs control.
From the text: as §2, §3

The subject of experiment [5] is CB derived hematopoietic stem cells (HSCs). Described as above. It counts as cell-based, human. Conditions: FT-VI 0.025 μg/ml plus GDP-fucose, 37° C., 30 min, vs control.
From the text: as §2, §3

With `C[C@@H](N)[C@H]1CC[C@H](C(=O)Nc2ccncc2)CC1` [Y27632], the “megakaryocyte polyploidy (polyploid =>8N megakaryocytes)” value with CB megakaryocytes [1] was “increases”. Further, the “platelets secretion (number of platelets)” value with CB megakaryocytes [2] is “enhance”. Also, the “TRAP induced platelet activation (CD62P expression)” value in the experiment with CB platelets is reported as “enhance”.

B1: α1,3-fucosyltransferase (protein, UniProt P51993 1-359, looked up)
4-galactosyl-N-acetylglucosami …: MDPLGPAKPQWSWRCCLTTLLFQLLMAVCFFSYLRVSQDDPTVYPNGSRFPDSTGTPAHSIPLILLWTWPFNKPIALPRCSEMVPGTADCNITADRKVYPQADAVIVHHREVMYNPSAQLPRSPRRQGQRWIWFSMESPSHCWQLKAMDGYFNLTMSYRSDSDIFTPYGWLEPWSGQPAHPPLNLSAKTELVAWAVSNWGPNSARVRYYQSLQAHLKVDVYGRSHKPLPQGTMMETLSRYKFYLAFENSLHPDYITEKLWRNALEAWAVPVVLGPSRSNYERFLPPDAFIHVDDFQSPKDLARYLQELDKDHARYLSYFRWRETLRPRSFSWALAFCKACWKLQEESRYQTRGIAAWFT
notes: fucosyl-transferase enzyme used with GDP-fucose for ex vivo fucosylation of cells
On to B1, for which the “neutropenia and thrombocytopenia duration in recipient patients” value in the experiment with recipient patients is on record as “significantly reduce”. Besides, the “fucosylation levels (HECA-452 MFI) in megakaryocytes” value in experiment [3] was “significantly increased”. Further, in experiment [4], the “fucosylation levels (HECA-452 MFI) in MEPs” value is “significantly increased”. In experiment [5], the “fucosylation levels (HECA-452 MFI) in HSCs” value is “significantly increased”.

These data come from patent US20230383257A1, “PRODUCTION OF MEGAKARYOCYTES AND PLATELETS IN A CO-CULTURE SYSTEM” (BOARD OF REGENTS, THE UNIVERSITY OF TEXAS SYSTEM, priority 2020, published 2023).
